Experimental findings from patent US20230357387A1 (published 2023) are described below.

Assay [1] has as its target T1, human ZIP12 on human ZIP12 expressing transfectant cells (human, UniProt Q504Y0 1-691).
T1 construct: Zinc transporter; also called ZIP12 transfected cells
As to the kind of experiment: flow cytometry-based reactivity screening, 63A11 lineage (FIG. 7). For orientation: Flow cytometry measures light scatter and fluorescence of single cells or particles in a stream.

In assay [2] the target is T2, ZIP4 as tested by flow cytometry (human, UniProt Q6P5W5 23-647).
T2 sequence: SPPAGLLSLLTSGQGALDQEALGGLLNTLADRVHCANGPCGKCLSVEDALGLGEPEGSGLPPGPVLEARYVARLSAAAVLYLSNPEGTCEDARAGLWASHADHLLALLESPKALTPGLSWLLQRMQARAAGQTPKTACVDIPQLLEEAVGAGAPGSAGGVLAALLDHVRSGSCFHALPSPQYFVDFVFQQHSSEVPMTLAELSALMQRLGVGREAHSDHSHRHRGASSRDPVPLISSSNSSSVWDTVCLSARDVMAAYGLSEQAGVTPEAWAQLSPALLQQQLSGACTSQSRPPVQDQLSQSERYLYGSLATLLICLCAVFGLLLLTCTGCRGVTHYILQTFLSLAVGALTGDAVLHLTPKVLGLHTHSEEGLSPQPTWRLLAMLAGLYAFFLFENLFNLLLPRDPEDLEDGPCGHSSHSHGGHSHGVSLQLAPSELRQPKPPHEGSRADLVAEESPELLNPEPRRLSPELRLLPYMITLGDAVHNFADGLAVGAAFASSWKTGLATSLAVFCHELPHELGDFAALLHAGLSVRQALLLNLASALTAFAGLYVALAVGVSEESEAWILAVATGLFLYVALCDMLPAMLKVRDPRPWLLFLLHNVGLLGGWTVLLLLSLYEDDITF
The assay is described as above.

The target in assay [3] is T3, human ZIP12 extracellular domain expressed as a GST fusion protein (human, UniProt Q504Y0 1-202).
T3 construct: also called hZIP12-ECD-GST; huZIP12-ECD-GST; not shown: glutathione S-transferase (GST) fusion partner
As to the kind of experiment: ELISA-based reactivity screening, 63A11 lineage (FIG. 6). In general terms: ELISA stands for enzyme-linked immunosorbent assay.

Assay [4] has as its target T4, human ZIP4 extracellular domain GST fusion (human, UniProt Q6P5W5 23-327).
T4 construct: also called hZIP4-ECD-GST; huZIP4-ECD-GST; not shown: glutathione S-transferase (GST) fusion partner
T4 sequence: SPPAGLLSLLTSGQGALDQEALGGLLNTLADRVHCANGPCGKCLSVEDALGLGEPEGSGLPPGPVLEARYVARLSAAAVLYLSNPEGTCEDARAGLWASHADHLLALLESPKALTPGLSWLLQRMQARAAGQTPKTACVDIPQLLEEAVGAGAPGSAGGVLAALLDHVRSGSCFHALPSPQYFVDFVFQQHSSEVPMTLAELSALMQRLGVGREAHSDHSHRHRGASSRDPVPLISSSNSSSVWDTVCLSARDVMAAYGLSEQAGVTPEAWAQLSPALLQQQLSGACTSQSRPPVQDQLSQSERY
The description is as above.

Assay [5] deals with T3, human ZIP12 extracellular domain …. As to the kind of experiment: ELISA-based reactivity screening, 51B12 lineage (FIG. 9).
Assay [6] deals with T4, human ZIP4 extracellular domain GST …. The assay is described as above.

B1: 63A11 parental antibody (antibody, human IgG1, kappa, V domains shown)
VH: EVQLVESGGGLVKPGGSRKLSCAASGFTFSDHGMHWVRQAPEKGLEWVAYISSGSSAIFYADTVKGRFTMSRDNAKNTLFLQMTSLRSEDTAMYFCARWTNLYAMDYWGQGTSVTVSS
VL: DIVLTQSPASLAVSLGQRATISCRASKSVSTSGYSYMHWYQQKPGQPPKLLIYLASNLESGVPARFSGSGSGTDFTLNIHPVEEEDAATYYCQHSRELPLTFGAGTKLELKR
notes: the full chains it gives are the chimeric ones; also called 19214; parent antibody
As to B1, the binding result in assay [1] is “binds”; in assay [2] it was “no binding”; in assay [3], “binds”; in assay [4], “no binding”.

B2: 51B12 parental antibody (antibody, human IgG1, kappa, V domains shown)
VH: EVQLVESGGGLVKPGGSRKLSCAASGFTFSDYGMHWVRQAPEKGLEWVAYISSGGTTIYYADTVKGRFTISRDNAKNTLFLQMTSLRSEDTAMYYCARWTNLYAMDYWGQGTSVTVSS
VL: DIVLTQSPASLAVSLGQRATISCRASKSVSTSGYSYMHWYQQKPGQPPKFLIYLASNLESGVPARFSGSGSGTDFTLNIHPVEEEDAATYYCQHSREVPYTFGGGTKLEIKR
notes: also called 19213; parent antibody
Take B2: the binding result is “binds” in assay [5] and “no binding” in assay [6].
